Experimental data published in PMC11218997, “Human cytomegalovirus deploys molecular mimicry to recruit VPS4A to sites of virus assembly” (PLOS Pathogens, 2024).
Numbering of substitutions follows the chain as printed. Names and notes keep the numbering of the source.

B1: HHV6 pUL44: HA-tagged pUL71 homologue from HHV6 (pU44) (protein)
chain: MGNCFRRLSLFGQPTQAKYEMLCSSDDLETEELTYFLDMTYKDFGVYQNDIISHQKDTETMKTLLGLLPMYKKTKLRHTVMERCLSNCPNHVKDALCVELMKAEKILQTMDVVFMKTLIGEFSMCTDNLNQLLNKFATDQSTLSDVEKINSLIEIDGENSKRLLVELDPILHEETGLYQALPNVVTEAPSEKVKSIRVESEGESV
modifications: left off: HA, C-terminal, kept
B2: VPS4A-FLAG-V13D: FLAG-tagged VPS4A with V13D substitution that prevents binding to MIM2 (protein, UniProt Q9UN37 1-437, looked up, variant V13D)
Vacuolar protein …: MTTSTLQKAIDLDTKATEEDKAKNYEEALRLYQHAVEYFLHAIKYEAHSDKAKESIRAKCVQYLDRAEKLKDYLRSKEKHGKKPVKENQSEGKGSDSDSEGDNPEKKKLQEQLMGAVVMEKPNIRWNDVAGLEGAKEALKEAVILPIKFPHLFTGKRTPWRGILLFGPPGTGKSYLAKAVATEANNSTFFSVSSSDLMSKWLGESEKLVKNLFELARQHKPSIIFIDEVDSLCGSRNENESEAARRIKTEFLVQMQGVGNNNDGTLVLGATNIPWVLDSAIRRRFEKRIYIPLPEEAARAQMFRLHLGSTPHNLTDANIHELARKTEGYSGADISIIVRDSLMQPVRKVQSATHFKKVCGPSRTNPSMMIDDLLTPCSPGDPGAMEMTWMDVPGDKLLEPVVCMSDMLRSLATTRPTVNADDLLKVKKFSEDFGQES
modifications: FLAG tag
B3: VPS4A(L64D)-FLAG: FLAG-tagged VPS4A with L64D substitution that prevents binding to MIM1 (protein, UniProt Q9UN37 1-437, looked up, variant L64D)
Vacuolar protein …: B2 Vacuolar protein … with D13V, L64D
modifications: FLAG tag
B4: YC-VPS4A-FLAG: VPS4A-FLAG fused to the C-terminal half of Citrine (protein)
chain: B2 Vacuolar protein … with D13V
modifications: left off: Citrine residues 156-239 with A206K (YC), N-terminal, kept | FLAG, C-terminal, kept
B5: HSV-1 pUL51: HA-tagged pUL71 homologue from HSV-1 (pUL51) (protein)
chain: MASLLGAICGWGARPEEQYEMIRAAVPPSEAEPRLQEALAVVNALLPAPITLDDALGSLDDTRRLVKARALARTYHACMVNLERLARHHPGFEAPTIDGAVAAHQDKMRRLADTCMATILQMYMSVGAADKSADVLVSQAIRSMAESDVVMEDVAIAERALGLSAFGVAGGTRSGGIGVTEAPSLGHPHTPPPEVTLAPAARNGDALPDPKPESCPRVSVPRPTASPTAPRPGPSRAAPCVLGQ
modifications: left off: HA, C-terminal, kept

Key:
VPS4A-FLAG [1] = assay: Anti-FLAG co-immunoprecipitation from co-transfected HEK293FT cells; assay type: cell-based, human; settings: 48 h post-transfection, immunoblot
Text: (§1) All eukaryotic expression plasmids for pUL71 and pUL71 homologues were generated in the backbone of pEF1/Myc-His C expression vector (Invitrogen) by cloning using restriction enzymes. The open reading frame (ORF) of full-length UL71 was amplified from the HCMV wild-type BAC TB40-BAC4 using the primers ex_71_for and ex_71_rev and was the basis for all further UL71 mutants. C-terminally truncated variants UL71_1–326, UL71_1–320 and UL71_1–314 were generated using primers ex_71_for and respective reverse primers UL71_1–326_rev, UL71_1–320_rev and UL71_1–314_rev. Point mutants PPAA (P315A+P318A), V317D, P315A and P318A of the vMIM2 of pUL71 were generated by fusion PCR. For the example of the PPAA mutant, a first fragment UL71_1-326-PPAA was amplified with the primers ex_71_for and UL71 _1–326_P315A/P318A_rev. A second fragment UL71_320–361 was amplified by using primers UL71_1–361_P315A/P318A-for and ex_71_rev. The final PCR product UL71-PPAA was amplified by using fragment UL71_1-326-PPAA as template and ex_71_for and fragment UL71_320–361 as primers. UL71-V317D, UL71-P315A and UL71-P318A were generated similarly manner using the primers UL71 _1–326_V317D_rev, UL71 _1–326_P315A_rev and UL71 _1–326_P318A_rev, respectively, to generate the first fragment. […]

VPS4A-FLAG [2] = assay: Co-transfection localisation, immunofluorescence, COS-7 cells; assay type: cell-based, human; settings: COS-7, 20–24 h post-transfection
Text: as §1

pUL71 = assay: Co-transfection localisation of VPS4A-FLAG variants with pUL71, COS-7 cells; assay type: cell-based, HCMV; settings: COS-7, co-transfection
Text: Human VPS4A-FLAG, C-terminally fused with the FLAG-tag epitope, was expressed from expression vector pBJ5-Vps4Flag (gift from A. Calistri, University of Padova, Italy). Cloning of this vector is described in detail in [100]. The VPS4-FLAGΔMIT variant, comprising VPS4A residues 119–437, was generated from pBJ5-Vps4Flag using primers bex_VPS4aa119-437 and Flag+Stop_rev. Point mutant VPS4A-FLAG-V13D was amplified using primers Vps4A-V13D_for and Flag+Stop_rev. Variant VPS4-FLAG-L64D was generated by fusion PCR where primers Vps4_for and Vps4A-L64D_rev generated a fragment that was used as forward primer in a second PCR together with primer Flag+Stop_rev to generate full-length VPS4A. All VPS4A variants were cloned using restriction enzymes into backbone vector pEF1/Myc-His C.
Intracellular localisation studies after transient expression were performed in COS-7 cells that were seeded with 3.3×10^4 cells per well on glass coverslips in a 24-well plate. The next day, cells were transfected with the respective DNAs by using Lipofectamine LTX (Invitrogen) according to the manufacturer’s protocol. Between 20 to 24 hours post-transfection, cells were fixed with 4% (v/v) paraformaldehyde (PFA) in PBS for 10 min at 4°C and prepared for localisation analysis by using indirect immunofluorescence staining.

[3] = system: pUL71 (YN fusion, TB71-YN); assay: Bimolecular fluorescence complementation in TB71-YN infected MRC-5 cells; assay type: cell-based, HCMV; settings: MRC-5 infected with TB71-YN, MOI 1, 5 dpi
Text: HCMV strains AD169 [92], Toledo [93], Merlin [94], VR1814 [95] and TB40/E [96] and two clinical isolates (isolates 19 and 20, kindly provided by C. Sinzger, Ulm University Hospital, Germany) were used in this study. This panel was chosen as it covers the most commonly used cell culture passaged strains and two isolates that grow highly cell associated. In addition, bacmid derived viruses were used. Reconstituted virus from bacterial artificial chromosome (BAC) clone TB40-BAC4 of the endotheliotropic HCMV strain TB40/E (accession number EF999921.1.) served as wild type virus (WT) in this study. Generation and propagation of recombinant viruses, TBstop71 and TBrev71 have been described elsewhere. […] The recombinant virus TB71-YN used for bimolecular fluorescence complementation (BiFC) assay, was generated by markerless BAC mutagenesis from BAC clone TB40-BAC4 by inserting the sequences corresponding to a (GGGGS)2-linker sequence, the c-myc-tag and the N-terminal fragment of the yellow fluorescent protein (YFP) variant Citrine, comprising amino acids 1–173 (YN), before the stop codon of the UL71 open reading frame. […]

Molecule | co-precipitation by VPS4A-FLAG (VPS4A-FLAG [1]) | recruitment of VPS4A-FLAG to juxtanuclear compartments (VPS4A-FLAG [2]) | association of VPS4A variant with pUL71 at juxtanuclear compartments (pUL71) | Citrine fluorescence (BiFC) [3]
B1 | bind efficiently to co-transfected VPS4A-FLAG | it is recruited |  | 
B2 |  |  | prevents association | 
B3 |  |  | efficiently recruited by pUL71 | 
B4 |  |  |  | Citrine fluorescence was detected
B5 | do not | not recruited to juxtanuclear membranes |  | 
